Values quoted from earlier work in PMC5912896.

Biological target: Akt PH domain (Homo sapiens) (UniProt P31749)
Chain of UniProt P31749 (P31749 2-111): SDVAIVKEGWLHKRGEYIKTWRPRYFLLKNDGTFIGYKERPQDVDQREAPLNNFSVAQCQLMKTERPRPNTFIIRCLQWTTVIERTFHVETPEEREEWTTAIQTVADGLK

## Akt-in peptide (TCL1 A strand)
  Kd: 18 µM
